# Assay results reported in PMC7864056, “Functional and structural characterization of allosteric activation of phospholipase Cε by Rap1A” (The Journal of Biological Chemistry, 2020).
# B1: constitutively active and prenylated Homo sapiens Rap1A G12V, GTP-bound (natural protein, UniProt P62834 1-184, looked up)
# chain: MREYKLVVLGSVGVGKSALTVQFVQGIFVEKYDPTIEDSYRKQVEVDCQQCMLEILDTAGTEQFTAMRDLYMKNGQGFALVYSITAQSTFNDLQDLREQILRVKDTEDVPMILVGNKCDLEDERVVGKEQGQNLARQWCNCAFLESSAKSKINVNEIFYDLVRQINRKTPVEKKKPKKKSCLLL
# modifications: prenylated
# What was measured:
# Assay in all cases: cell-based or functional assay
# [1] = target: R. norvegicus PLCε PH-COOH variant (residues 837-2282) (R. norvegicus, UniProt Q99P84 837-2281)
# [2] = target: R. norvegicus PLCε PH-COOH K2150A (R. norvegicus, UniProt Q99P84 837-2281, K2150A)
# [3] = target: R. norvegicus PLCε PH-COOH K2152A (R. norvegicus, UniProt Q99P84 837-2281, K2152A)
# R. norvegicus PLCε PH-COOH K2152A, sequence (Q99P84 837-2281 K2152A): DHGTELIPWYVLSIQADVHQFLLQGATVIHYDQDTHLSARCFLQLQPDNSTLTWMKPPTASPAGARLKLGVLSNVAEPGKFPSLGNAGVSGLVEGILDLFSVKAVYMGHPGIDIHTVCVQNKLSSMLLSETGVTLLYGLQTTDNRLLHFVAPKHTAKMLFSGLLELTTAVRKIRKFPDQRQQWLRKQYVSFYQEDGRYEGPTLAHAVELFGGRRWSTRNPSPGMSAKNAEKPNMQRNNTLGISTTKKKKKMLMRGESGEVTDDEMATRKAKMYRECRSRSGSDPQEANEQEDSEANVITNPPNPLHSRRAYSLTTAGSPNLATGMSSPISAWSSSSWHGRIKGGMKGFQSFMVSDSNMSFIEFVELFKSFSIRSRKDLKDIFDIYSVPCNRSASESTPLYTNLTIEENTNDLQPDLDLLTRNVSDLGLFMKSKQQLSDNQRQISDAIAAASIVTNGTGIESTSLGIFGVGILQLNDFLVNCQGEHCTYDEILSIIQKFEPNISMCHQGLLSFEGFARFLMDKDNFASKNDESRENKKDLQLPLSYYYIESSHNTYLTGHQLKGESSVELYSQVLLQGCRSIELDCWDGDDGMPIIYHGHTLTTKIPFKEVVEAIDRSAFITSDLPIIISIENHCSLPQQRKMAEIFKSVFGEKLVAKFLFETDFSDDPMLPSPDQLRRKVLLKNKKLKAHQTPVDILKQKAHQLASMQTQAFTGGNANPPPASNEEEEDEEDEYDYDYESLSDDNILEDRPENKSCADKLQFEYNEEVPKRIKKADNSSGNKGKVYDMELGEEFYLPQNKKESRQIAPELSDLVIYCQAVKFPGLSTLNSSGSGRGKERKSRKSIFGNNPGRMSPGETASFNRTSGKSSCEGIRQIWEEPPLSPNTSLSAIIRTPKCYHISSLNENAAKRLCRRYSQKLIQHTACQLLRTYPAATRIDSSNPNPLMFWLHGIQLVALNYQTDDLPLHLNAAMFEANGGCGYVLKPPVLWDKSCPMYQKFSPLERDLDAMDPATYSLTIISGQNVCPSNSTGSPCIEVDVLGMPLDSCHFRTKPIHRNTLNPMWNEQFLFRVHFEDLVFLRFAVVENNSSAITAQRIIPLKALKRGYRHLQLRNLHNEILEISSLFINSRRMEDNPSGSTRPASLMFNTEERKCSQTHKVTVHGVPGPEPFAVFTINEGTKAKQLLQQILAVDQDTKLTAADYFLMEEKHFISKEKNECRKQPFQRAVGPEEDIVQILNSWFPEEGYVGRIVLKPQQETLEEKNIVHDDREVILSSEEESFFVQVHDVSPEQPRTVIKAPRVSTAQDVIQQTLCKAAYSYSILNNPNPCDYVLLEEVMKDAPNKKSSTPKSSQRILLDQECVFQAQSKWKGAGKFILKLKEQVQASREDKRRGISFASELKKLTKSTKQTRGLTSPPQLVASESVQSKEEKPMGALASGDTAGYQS
# R. norvegicus PLCε PH-COOH K2150A, sequence (Q99P84 837-2281 K2150A): as the sequence (Q99P84 837-2281 K2152A) above, with K1314A, A1316K counted along it
# R. norvegicus PLCε PH-COOH variant (residues 837-2282), sequence (Q99P84 837-2281, stated change not applied): as the sequence (Q99P84 837-2281 K2152A) above, with A1316K counted along it
binder,measurement,setting,value
B1,"Fold activation by Rap1A^G12V of lipase activity, liposome-based [3H]PIP2 hydrolysis assay, increasing concentrations of Rap1A^G12V·GTP",[1],3 fold
same,"Fold activation by Rap1A^G12V of lipase activity, liposome-based [3H]PIP2 hydrolysis assay",[2],1.8 fold
same,"Fold activation by Rap1A^G12V of lipase activity, liposome-based [3H]PIP2 hydrolysis assay",[3],0.9 fold
